# T1: cynomolgus monkey E-selectin, cell-surface expressed (cynomolgus monkey, UniProt P16581 22-610 (human entry))
# T1 construct: also called CHO-cynomolgus monkey E-selectin cells; cynomolgus monkey CHO-E
# T1 chain: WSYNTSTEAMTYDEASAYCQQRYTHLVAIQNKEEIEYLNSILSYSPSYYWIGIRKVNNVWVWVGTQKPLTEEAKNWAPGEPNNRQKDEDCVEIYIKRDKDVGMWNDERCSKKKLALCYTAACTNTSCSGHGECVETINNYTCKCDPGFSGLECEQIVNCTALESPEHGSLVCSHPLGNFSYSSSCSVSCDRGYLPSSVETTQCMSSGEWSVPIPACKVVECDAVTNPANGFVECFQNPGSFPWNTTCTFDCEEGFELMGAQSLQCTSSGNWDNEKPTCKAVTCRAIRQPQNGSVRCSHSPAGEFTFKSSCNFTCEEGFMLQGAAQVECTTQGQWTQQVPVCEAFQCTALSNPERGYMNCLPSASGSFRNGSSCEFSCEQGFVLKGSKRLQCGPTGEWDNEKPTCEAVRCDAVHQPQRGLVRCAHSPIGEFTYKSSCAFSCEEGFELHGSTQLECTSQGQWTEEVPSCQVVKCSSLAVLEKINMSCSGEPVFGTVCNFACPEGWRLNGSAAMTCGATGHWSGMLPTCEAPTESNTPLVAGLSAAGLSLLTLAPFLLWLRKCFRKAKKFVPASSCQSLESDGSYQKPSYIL
# T2: human E-selectin extracellular domain with 10 His purification tail (human, UniProt P16581 22-556)
# T2 construct: also called soluable human E-selectin extracellular domain; rhE-Selectin
# T2 sequence: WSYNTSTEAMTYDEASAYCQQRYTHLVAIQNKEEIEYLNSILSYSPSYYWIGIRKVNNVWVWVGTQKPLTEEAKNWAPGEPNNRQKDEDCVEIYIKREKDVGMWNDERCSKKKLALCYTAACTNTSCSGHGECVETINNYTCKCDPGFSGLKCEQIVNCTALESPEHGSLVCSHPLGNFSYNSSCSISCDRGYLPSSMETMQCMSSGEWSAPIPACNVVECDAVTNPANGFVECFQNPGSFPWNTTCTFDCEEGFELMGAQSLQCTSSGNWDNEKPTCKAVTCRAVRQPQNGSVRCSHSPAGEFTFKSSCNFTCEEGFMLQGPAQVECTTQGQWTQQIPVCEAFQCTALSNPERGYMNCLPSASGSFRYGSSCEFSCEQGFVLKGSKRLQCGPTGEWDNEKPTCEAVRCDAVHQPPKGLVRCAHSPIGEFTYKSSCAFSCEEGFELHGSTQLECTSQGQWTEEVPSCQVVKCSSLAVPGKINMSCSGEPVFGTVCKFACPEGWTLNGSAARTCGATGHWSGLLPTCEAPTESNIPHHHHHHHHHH
# T3: mouse E-selectin extracellular domain with 10 His purification tail (mouse, UniProt Q00690 22-557)
# T3 construct: also called soluable mouse E-selectin extracellular domain; muE-Selctin
# T3 sequence: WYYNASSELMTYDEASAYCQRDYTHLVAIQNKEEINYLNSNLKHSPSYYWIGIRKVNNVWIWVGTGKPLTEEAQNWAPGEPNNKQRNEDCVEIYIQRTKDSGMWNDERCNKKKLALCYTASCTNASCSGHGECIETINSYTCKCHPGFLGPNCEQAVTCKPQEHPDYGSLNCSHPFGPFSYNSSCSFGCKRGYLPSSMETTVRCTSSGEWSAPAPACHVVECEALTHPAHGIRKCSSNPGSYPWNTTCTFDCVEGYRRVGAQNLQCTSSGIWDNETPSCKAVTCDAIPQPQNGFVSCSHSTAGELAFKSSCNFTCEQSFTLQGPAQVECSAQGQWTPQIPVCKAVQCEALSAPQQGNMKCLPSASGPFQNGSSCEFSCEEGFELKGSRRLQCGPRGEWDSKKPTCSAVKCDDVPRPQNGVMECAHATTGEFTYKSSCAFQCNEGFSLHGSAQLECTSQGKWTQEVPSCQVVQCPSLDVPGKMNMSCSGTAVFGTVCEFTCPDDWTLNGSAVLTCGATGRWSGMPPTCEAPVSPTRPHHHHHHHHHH
# Experiments:
# [1] = target: T1, cynomolgus monkey E-selectin, …; assay: flow cytometry, CHO cells
# Method: Cells were maintained in growth medium at 37° C., 5% CO₂ and 95% air in a humidified incubator. Methotrexate or Zeocin were removed from the medium prior to culture for experiments. CHO-E selectin cells or P-selectin cells were detached from T-150 flasks using citric saline (135 mM KCl, 15 mM sodium citrate) and immediately re-calcified with the addition of CaCl₂) to the detached cells to a final concentration of 1 mM. Growth media was immediately added to the detached cells, then centrifuged at 300×g for 5 minutes at room temperature to pellet the cells. Cells were plated into 96-well V-bottom plates in cold CHO buffer consisting of phosphate buffered saline (PBS), pH 7.4 containing bovine serum albumin (BSA; Sigma-Aldrich) at final concentration of 1%, calcium chloride at final concentration of 1 mM, and sodium azide at a final concentration of 0.1%, for 5 minutes on wet ice. After incubation, the cells were centrifuged at 300×g for 2 minutes at 4° C. to remove the buffer.
# After incubation, antibodies were removed and the cells were washed three times by centrifugation at 300×g for 1 minute at 4° C. and resuspended in cold CHO buffer. The washed cells were incubated for 30 minutes on wet ice with 100 μL of a 1:1000 dilution of APC-conjugated AffiniPure F(ab′)₂ Fragment Goat Anti-human IgG, Fcγ (Jackson Imnnunoresearch). The cells were washed three or four times prior to resuspension in CHO buffer for flow cytometric analysis. A Becton Dickinson LSRFortessa instrument using 640 nanometer laser line was used to acquire cell fluorescence data. Geometric mean fluorescence of cells was analyzed by FlowJo software package (FlowJo, LLC) and plotted against antibody concentration. The estimated EC₅₀ values were calculated using nonlinear regression analysis in the Prism suite (GraphPad, version 8) (Table 8).
# [2] = target: T2, human E-selectin extracellular domain …; assay: antigen binding ELISA, HRP detection
# Method: (§1) 384-well Maxisorp plates were used to capture the human and mouse His-tagged recombinant E-selectin polypeptides. The polypeptides were incubated with chimeric antibodies of varying concentrations and detected with HRP-labeled anti-human IgG1 antibodies.
# [3] = target: T3, mouse E-selectin extracellular domain …; assay: antigen binding ELISA, HRP detection
# Method: as §1
Binder,EC50 [1] [nM],EC50 [2] [nM],EC50 [3] [nM]
"anti-E-selectin antibody 0039 chimera (antibody, human IgG1, kappa, V domains shown, rat VH/VL on effector-null human IgG1 and human kappa) VH: QVQLKETGPGLVQPTQTLSITCTVSGFSLTGYYMQWVRQTPGKGLEWMGFIRSSGSTEYNSEFKSRLSISRDTSKNQVFLKMNSLKTEDTGVYYCARCPYKYSSFVYVGVMDAWGQGAPVTVSS VL: EIVMTQSPTSMSTSIGERVTLNCKASQTVGINVDWYQQTPGQPPKLLIYGASNRHTGVPDRFTGSGFGRDFTLTISNVEAEDLAVYCCLQYGSIPHTFGPGTKLELKR",4.07,0.02,> 133
"anti-E-selectin antibody 0159 chimera (antibody, human IgG1, kappa, V domains shown, rat VH/VL on effector-null human IgG1 and human kappa) VH: EVQLQQSGAELGKPGTSVKLSCKVSGYNIRSTYMHWVSQRPGKGLEWIGRIDPANGNTIYAEKFKRKATLTADTSSNTAYMQLSQLKSDDRAIYFCAMEVRVSFEYWGQGVMVTVSS VL: DIQMTQSPSFLSASVGDRVTINCKASQNINKYLDWYQQKLGEGPKLLIYYTNNLHTGIPSRFSGSGSGTDFTLTISSLQPEDVATYFCLQHDSGYTFGAGTKLELKR",3.37,0.02,> 133
"anti-E-selectin antibody 0170 chimera (antibody, human IgG1, kappa, V domains shown, rat VH/VL on effector-null human IgG1 and human kappa) VH: EVQLQQSGAELGKPGTSVKLSCKVSGYSIRSTYMHWVNQRPGKGLEWVGRIDPANGNTIYAERFKNKATLTADTSSNTAYMQLSQLKSDDTAIYFCAVEILGIFDYWGQGVMVTVSS VL: DIQMTQSPSFLSASVGDRVTINCKASQNIDKYLDWYQQKLGEAPKLLMYNTNSLHTGIPSRFSGSGSGTDFTLTISSLQPEDVATYFCLQHNSGYTFGAGTKLELKR",3.76,0.01,> 133

# More lines, now with the values ahead:
EC50 [1] [nM],EC50 [2] [nM],EC50 [3] [nM],Binder
3.66,0.01,> 133,"anti-E-selectin antibody 0180 chimera (antibody, human IgG1, kappa, V domains shown, rat VH/VL on effector-null human IgG1 and human kappa) VH: EVQLQQSGAELGKPGTSVKLSCKVSGYKIRSSYMHWVNQRPGKGLEWIGRIDPANGNTIYGDKFKSKATLTSDTSSNTAYIQLSQLKSDDTAIYFCAIDIGTTFDYWGQGVMVTVSS VL: DIQMTQSPSFLSASVGDRVTINCKASQHINRYLNWYQQKLGEAPKLLIYDANNLQTGIPSRFSGSGSGTDFTLTISSLQPEDVATYFCLQHNSWPNTFGAGTKLELKR"
1.73,0.02,> 133,"anti-E-selectin antibody 0164 chimera (antibody, human IgG1, kappa, V domains shown, rat VH/VL on effector-null human IgG1 and human kappa) VH: EVQLQQSGAEFGKPGTSVKLSCKVSGYNIRSSYMHWVNQRPGKGLEWIGRIDPANGNTIYAEKFKIKAILTADSSSNTAYMQLSQLKSDDTAIYFCAMDLYSTSEYWGQGVMVTVSS VL: DIQMTQSPSFLSASVGDRVTINCKTSQNINRYLNWYQQKLGEAPKLLIYNANSLQTGIPSRFSASGSGTDFTLTINSLQPEDVATYFCLQDNSWPLTFGSGTKLEIKR"
14,0.03,> 133,"anti-E-selectin antibody 0158 chimera (antibody, human IgG1, kappa, V domains shown, rat VH/VL on effector-null human IgG1 and human kappa) VH: QVQLKESGPGLVQPSETLSLTCTVSGFSISTYNVHWLRQPPGKGLEWMGMMWSGGSPDYNSALKSRLSISRDTSKNQVFLKMNSLQSEDTTTYYCARWGGGFDYWGQGVMVTVSS VL: DIVLTQSPTTLSVTPGETVSLSCRASHSIGTNLHWYQQKTNESPRLLIKFTSQSISGIPSRFSASGSGTDFTLNINNVEFDDVSSYFCQQTQSWPLTFGSGTKLEIKR"
